Reference: US20250034224A1

Tests used:
Experiment in all cases: cell-based or functional assay
[1] = molecular target: IL2 receptors (on lymphocyte populations of human PBMCs)
[2] = molecular target: Chimeric antigen receptor containing a VL-VH scFv (VL and VH of antibody 17363N) recognizing T3 (HLA)
[3] = molecular target: OT-I TCR (Ovalbumin(257-264)-specific) on CD8+ T cells of an OT-I TCR transgenic mouse (mouse); settings: scale: orders of magnitude higher potency than T5-IL2M6

IL2M2: Human IL2-(GGGGS)4-human IL-2Ra-GGGGS-Fc (Fc fusion)
potency in STAT5 phosphorylation on multiple lymphocyte populations, against IL2M0 (fold less potent than IL2M0) [1]: 100

IL2M5: Fc-GGGGS-human IL2 (N88D, C125A) fusion (Fc fusion)
potency in STAT5 phosphorylation on multiple lymphocyte populations, against IL2M4 (fold less potent than IL2M4) [1]: > 100

T3-IL2M6: HPV16E7(11-19)-GCGGS-(GGGGS)2-hB2m-(GGGGS)4-hHLA.A2-(GGGGS)4-Fc-(GGGGS)3-hIL2(H16A, F42A) (peptide-MHC)
frequency of viable CAR-T (eGFPPos) cells at day 3 of expansion (start 38%) [2]: 36%

T4-IL2M6: OVA(257-264)-GCGGS-(GGGGS)2-mB2m-(GGGGS)4-mH2Kb-(GGGGS)4-Fc-(GGGGS)3-hIL2(H16A, F42A) (peptide-MHC)
intracellular STAT5 phosphorylation in gated CD8+ T cells of OT-I splenocytes [3]: 2
